Measured values: patent US20210284729A1
Where “and” joins values, the source holds several entries; their conditions need not be identical. Equal values may be shown once.

Target: 4-1BB (CD137) on T cells (human) (UniProt Q07011)
Experiment: cell-based or functional assay

4-1BB (CD137) on T cells (human), sequence (Q07011 24-255): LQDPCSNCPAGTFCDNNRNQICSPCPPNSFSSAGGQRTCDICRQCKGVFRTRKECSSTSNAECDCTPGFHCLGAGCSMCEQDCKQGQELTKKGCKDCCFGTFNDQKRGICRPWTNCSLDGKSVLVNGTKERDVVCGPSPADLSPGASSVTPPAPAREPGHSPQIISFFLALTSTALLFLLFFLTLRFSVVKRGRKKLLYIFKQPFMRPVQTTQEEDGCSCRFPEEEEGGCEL

IFN-gamma secretion by T cells (ELISA, 24 h): > 10 fold
T cell expansion (T cell number at day 6 to day 0): 2 fold and 3 fold
TNF-alpha secretion by T cells (ELISA, 24 h): < 8 fold
expansion of autologous AML patient T cells after 96 h of co-culture: 3 fold
Substance: co-stimulatory 4-1BB ligand (CD137L) expressed on the surface of gene-modified hMSCs (SCP-1) (from UniProt P41273 1-254)
